Assay [1] addresses T1, human CD19 (human, UniProt P15391 20-556).
T1 sequence (looked up): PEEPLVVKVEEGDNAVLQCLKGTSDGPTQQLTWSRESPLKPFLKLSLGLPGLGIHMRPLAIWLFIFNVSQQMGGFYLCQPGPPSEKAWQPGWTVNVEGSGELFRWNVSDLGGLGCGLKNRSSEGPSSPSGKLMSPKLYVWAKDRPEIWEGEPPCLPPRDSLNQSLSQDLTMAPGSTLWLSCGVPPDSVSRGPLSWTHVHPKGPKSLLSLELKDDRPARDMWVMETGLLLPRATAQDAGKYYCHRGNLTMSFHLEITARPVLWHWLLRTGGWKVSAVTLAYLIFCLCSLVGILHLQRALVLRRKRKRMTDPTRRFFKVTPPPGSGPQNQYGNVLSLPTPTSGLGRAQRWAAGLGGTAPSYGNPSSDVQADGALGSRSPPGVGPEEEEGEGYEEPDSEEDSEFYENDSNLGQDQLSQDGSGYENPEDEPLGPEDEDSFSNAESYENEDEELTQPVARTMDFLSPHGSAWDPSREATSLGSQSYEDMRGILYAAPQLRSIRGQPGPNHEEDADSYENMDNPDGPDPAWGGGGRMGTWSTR
Put plainly: cell-based or functional assay.

The target of assay [2] is FcγRIIIa V158 variant (high-affinity allotype) (human, UniProt P08637 17-254). Put plainly: cell-based or functional assay.
Chain of FcγRIIIa V158 variant (high-affinity allotype) (P08637 other isoform, or with tags, fused parts or gaps mutant limits assumed): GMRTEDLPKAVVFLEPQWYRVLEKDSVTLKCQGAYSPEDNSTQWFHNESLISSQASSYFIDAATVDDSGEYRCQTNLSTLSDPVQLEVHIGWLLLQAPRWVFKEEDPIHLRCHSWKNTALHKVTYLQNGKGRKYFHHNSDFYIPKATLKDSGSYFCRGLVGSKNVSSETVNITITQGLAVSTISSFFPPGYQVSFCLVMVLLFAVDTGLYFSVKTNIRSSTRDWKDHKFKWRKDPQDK
The target of assay [3] is FcγRIIIa F158 variant (low-affinity allotype) (human, UniProt P08637 17-254). Put plainly: cell-based or functional assay.
Chain of FcγRIIIa F158 variant (low-affinity allotype) (P08637 17-254, change not shown): as the sequence (P08637 other isoform, or with tags, fused parts or gaps mutant limits assumed) above, with V160F counted along it
The target of assay [4] is T1, human CD19. Put plainly: cell-based or functional assay. This is another data set of the same source.
In assay [5] the target is T1, human CD19. Put plainly: flow cytometry on Raji (BL) cells, endogenous CD19; average of two experiments. Background: In flow cytometry, cells or beads pass a laser one at a time.
Assay [6] addresses T1, human CD19. Put plainly: flow cytometry on RS4; 11 (ALL) cells, endogenous CD19; average of two experiments.
Assay [7] has as its target T1, human CD19. Kind of assay: flow cytometry on SUP-B15 (ALL) cells, endogenous CD19; average of two experiments.
Assay [8] concerns the target T1, human CD19. Put plainly: flow cytometry on OCI-LY19 (DLBCL) cells, endogenous CD19; average of two experiments.

This is an account of results in patent US20240100181A1 (AbbVie / Abbott, published 2024).

B1: ADC-1 (CD19 Phosphorylated GRM agonist ADC: CD19 mAb conjugated to the drug linker of Formula V) (other)
heavy: EVQLVESGGGLVQPGGSLRLSCAASGFTFTTYWINWVRQAPGKGLEWIGNIYPSDSYTNYNQKFKDRATLSVDKSKNTAYLQMNSLRAEDTAVYYCTREDYYGSSSYYAMDYWGQGTLVTVSSASTKGPSVFPLAPSSKSTSGGTAALGCLVKDYFPEPVTVSWNSGALTSGVHTFPAVLQSSGLYSLSSVVTVPSSSLGTQTYICNVNHKPSNTKVDKKVEPKSCDKTHTCPPCPAPELLGGPSVFLFPPKPKDTLMISRTPEVTCVVVDVSHEDPEVKFNWYVDGVEVHNAKTKPREEQYNGSTYRVVSVLTVLHQDWLNGKEYKCKVSNKALPAPIEKTISKAKGQPREPQVYTLPPSREEMTKNQVSLTCLVKGFYPSDIAVEWESNGQPENNYKTTPPVLDSDGSFFLYSKLTVDKSRWQQGNVFSCSVMHEALHNHYTQKSLSLSPGK
light: AILMTQSPSSLSASVGDRVTITCKASQDVGTAVAWYQQKPGKAPKLLIYWASTRHTGVPSRFSGSGSGTDFTLTISSLQPEDFATYYCQQYSTYPLTFGQGTKVEIKRTVAAPSVFIFPPSDEQLKSGTASVVCLLNNFYPREAKVQWKVDNALQSGNSQESVTEQDSKDSTYSLSSTLTLSKADYEKHKVYACEVTHQGLSSPVTKSFNRGEC
modifications: zero or one phosphate-GRM drug linker molecule (Formula V) attached via cysteine -S-; cysteine position not stated; afucosylated at ASN-300 (EU: ASN-297); zero, one, two or three phosphate-GRM drug linker molecules (Formula V, Ala-Ala linker) attached via cysteine -S-; cysteine positions not stated
As for B1, in the assay with human CD19 [1], the “PBMC co-culture ADCC, specific lysis EC50 (RS4; 11, Raji, KARPAS422)” value fell in the range of 70 to 142 pM. Further, in assay [2], the “ADCC NFAT reporter activation (Jurkat reporter cells, Raji target cells)” value (from here on “ADCC NFAT reporter activation”) worked out at 0.017 nM. Moreover, the “ADCC NFAT reporter activation” value in assay [3] is 0.018 nM. In the assay with human CD19 [4], the “anti-proliferative assay EC50, KARPAS422 (DLBCL)” value was determined as 210 pM; the “anti-proliferative assay EC50, OCI-LY19 (DLBCL)” value was found to be 103000 pM; the “anti-proliferative assay EC50, RS4; 11 (ALL)” value was determined as 82 pM; the “anti-proliferative assay EC50, SU-DHL-6 (DLBCL)” value is 311 pM. Moreover, the “anti-proliferative assay EC50, SUP-B15 (ALL)” value in the assay with human CD19 [4] amounted to 321 pM.

B2: CD19 mAb (humanized, afucosylated anti-CD19 IgG1 kappa monoclonal antibody of Example 1) (antibody)
heavy: B1 heavy
light: B1 light
modifications: afucosylated N-glycan at ASN-300 (EU: ASN-297), greater than or equal to 90% afucosylated
notes: Human IgG1, kappa; Made in CHO cells expressing Pseudomonas RMD; also called CD19 antibody; humanized anti-CD19 antibody
Turning to B2, the figures for the “ADCC NFAT reporter activation” value in assay [2] and in assay [3] were 0.027 nM and 0.023 nM, respectively. In addition, the EC50 – broadly, the concentration at which the effect is half-maximal – is 713 pM with human CD19 [5], 401 pM with human CD19 [6], 683 pM with human CD19 [7] and 836 pM with human CD19 [8].
